# Data from publication PMC4927390.
# Molecular target: PpsR2-mVenus-CAAX (membrane-bound) (Rhodopseudomonas palustris)
# Test: translocation assay
substance,measurement,value
"BphP1-mCherry, transiently expressed in HeLa cells (natural protein)",decrease of mCherry fluorescence in cytoplasm after 3 min of 740 nm illumination,25%
